Experimental data taken from patent US20240279309A1 (Molecular Partners, published 2024).
Blank lines part the entries; values can stand above or below the binder they belong to.

Columns and labels:
[1] = target: T1, biotinylated human CD40 (recombinant human CD40 target) (human, UniProt P25942 21-194, biotinylated (site not stated)); test: SPR (ProteOn), biotinylated human CD40 on NLC chip, ankyrin repeat protein injected, 1:1 Langmuir, PBST
T1 construct: The HTRF and SPR texts say only 'biotinylated human CD40'; the Materials list a bought Fc fusion of the extracellular domain of human CD40 (ACRO Biosystems) as the only recombinant CD40; also called hCD40; Recombinant Fc fusion protein of the extracellular domain of human CD40; not shown: IgG1 Fc domain
Protocol: Briefly, biotinylated human CD40 was diluted in PBST (PBS, pH 7.4 containing 0.005% Tween 20®) and coated on two lanes of a NLC chip (BioRad) to levels of respectively 400 and 700 resonance units (RU). The interaction of ankyrin repeat protein and hCD40 was then measured by injecting 200 μl running buffer (PBS, pH 7.4 containing 0.005% Tween 20®) containing serial dilutions of ankyrin repeat proteins covering a concentration range between 50 nM and 3 nM for multi-trace SPR measurements (on-rate measurement), followed by a running buffer flow for at least 10 minutes at a constant flow rate of 100 μl/min (off-rate measurement). The regeneration was performed using 30 μl of 10 mM Glycine-HCl pH 2. The signals (i.e. resonance unit (RU) values) of the interspots and a reference injection (i.e. injection of running buffer only) were subtracted from the RU traces obtained after injection of ankyrin repeat protein (double-referencing). Based on the SPR traces obtained from the on-rate and off-rate measurements, the on- and off-rate of the corresponding ankyrin repeat protein—CD40 interaction was determined using a 1:1 Langmuir kinetic model.
Dissociation constants (KD) were calculated from the estimated on- and off-rates using standard procedures known to the person skilled in the art. KD values of the binding interactions of selected ankyrin repeat proteins with human CD40 were determined to be in the nanomolar range. Table 2 provides the KD values of some selected ankyrin repeat proteins as examples.

[2] = target: T2, CD40 receptor on cells (HEK293 reporter cells expressing CD40; primary human B cells) (human, UniProt P25942 21-277); test: cell-based or functional assay
[3] = target: T2, CD40 receptor on cells (HEK293 reporter …); test: cell-based or functional assay; remark: listed apart in the source
[4] = target: T2, CD40 receptor on cells (HEK293 reporter …); test: cell-based or functional assay; remark: listed apart in the source
[5] = target: T2, CD40 receptor on cells (HEK293 reporter …); test: cell-based or functional assay; remark: listed apart in the source

T2 sequence (P25942 21-277): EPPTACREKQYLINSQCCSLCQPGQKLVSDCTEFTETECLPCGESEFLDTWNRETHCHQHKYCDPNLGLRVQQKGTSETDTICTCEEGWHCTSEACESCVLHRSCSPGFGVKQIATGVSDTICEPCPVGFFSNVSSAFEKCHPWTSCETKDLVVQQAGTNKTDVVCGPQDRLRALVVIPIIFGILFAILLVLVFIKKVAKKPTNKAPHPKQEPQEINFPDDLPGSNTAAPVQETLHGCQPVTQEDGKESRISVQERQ
T1 sequence (P25942 other isoform, or with tags, fused parts or gaps): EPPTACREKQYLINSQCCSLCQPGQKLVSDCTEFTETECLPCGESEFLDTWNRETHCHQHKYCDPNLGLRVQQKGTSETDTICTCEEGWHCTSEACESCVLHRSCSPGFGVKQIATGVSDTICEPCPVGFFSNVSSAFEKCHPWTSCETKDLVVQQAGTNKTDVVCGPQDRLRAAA

Kd [1]: 73.5 nM
B1: ankyrin repeat domain of SEQ ID NO: 31 (designed binder)
chain: MRGSHHHHHHGSDLGKKLLWAAAAGQLDEVRELLKAGADVNAKDHVGYTPLHIAALAGHLEIVEVLLKAGEDVNAKDHKGRTPLHVAAAVGHLEIVEVLLKAGADVNAKDQQGVTPLHIAAITGHLEIVEVLLKAGADVNAQDKSGKTPADLAARAGHQDIAEVLQKAA
notes: Expressed in E. coli from a pQE30 derivative that provides an N-terminal His-tag; purified by its His-tag for SPR

Kd [1]: 12 nM
B3: ankyrin repeat domain of SEQ ID NO: 22 (designed binder)
chain: MRGSHHHHHHGSDLGKKLLQAARAGQLDEVRELLKAGADVNAKDEFGQTPLHIAAKSGHLEIVEVLLKAGADVNAKDVYGRTPLHLAAQYGHLEIVEVLLKAGADVNAKDTQGVTPLHVAAFKGHLEIVEVLLKAGADVNAQDKSGKTPADLAARAGHQDIAEVLQKAA
notes: as for B1

EC50 [nM], % CD86, human B cells with FAP-CHO, w/o HSA [2]: 0.23 nM
EC50 [nM], MFI CD86, human B cells with FAP-CHO, w/o HSA [2]: 0.74 nM
Efficacy [MFI at highest dose], MFI CD86, human B cells with WT-CHO (no FAP), w/o HSA [3]: 252 MFI
Efficacy at highest dose, % CD86, human B cells with WT-CHO (no FAP), w/o HSA [3]: 46%
Efficacy [MFI at highest dose], MFI CD86, human B cells with FAP-CHO, w/o HSA [4]: 6270 MFI
Efficacy at highest dose, % CD86, human B cells with FAP-CHO, w/o HSA [4]: 86.8%
efficacy of CD86 upregulation on human B cells with FAP-CHO, fold against the monovalent F-C format (SMA014) [5]: 2 fold
potency of CD86 upregulation on human B cells with FAP-CHO, fold against the monovalent F-C format (SMA014) [5]: 20 fold
B4: SMA104 (SEQ ID NO: 102) (designed binder)
chain: MRGSHHHHHHGSDLGEKLLVAALYGQDDEVRELLKAGADVNAKDQWGLTPLHKAALQGHLEIVEVLLKAGADVNAKDERGHTPLHWAARFGHLEIVEVLLKAGADVNAQDQKGYTPADLAALWGHEDIAEVLQKAAGSPTPTPTTPTPTPTTPTPTPTGSDLGKKLLQAARAGQLDEVRELLKAGADVNAKDTWGFTPLHIAAESGHLEIVEVLLKAGADVNAKDVQGRTPLHIAAHSGHLEIVEVLLKAGADVNAKDFRGWTPLHLAAWSGHLEIVEILLKAGADVNAQDKSGKTPADLAARAGHQDIAEVLQKAAGSPTPTPTTPTPTPTTPTPTPTGSDLGKKLLQAARAGQLDEVRELLKAGADVNAKDTWGFTPLHIAAESGHLEIVEVLLKAGADVNAKDVQGRTPLHIAAHSGHLEIVEVLLKAGADVNAKDFRGWTPLHLAAWSGHLEIVEILLKAGADVNAQDKSGKTPADLAARAGHQDIAEVLQKAA

The remaining lines, values behind:

B2: DARPin® protein #29 (SEQ ID NO: 29) (designed binder)
chain: MRGSHHHHHHGSDLGKKLLQAARAGQLDEVRELLKAGADVNAKDTWGFTPLHIAAESGHLEIVEVLLKAGADVNAKDVQGRTPLHIAAHSGHLEIVEVLLKAGADVNAKDFRGWTPLHLAAWSGHLEIVEILLKAGADVNAQDKSGKTPADLAARAGHQDIAEVLQKAA
notes: His-tagged as expressed for HTRF and SPR
Kd [1]: 73 nM

B5: SMA087 (SEQ ID NO: 100) (designed binder)
chain: MRGSHHHHHHGSDLGKKLLEAARAGQDDEVRELLKAGADVNAKDYFSHTPLHLAARNGHLKIVEVLLKAGADVNAKDFAGKTPLHLAAADGHLEIVEVLLKAGADVNAQDIFGKTPADIAADAGHEDIAEVLQKAAGSPTPTPTTPTPTPTTPTPTPTGSDLGEKLLVAALYGQDDEVRELLKAGADVNAKDQWGLTPLHKAALQGHLEIVEVLLKAGADVNAKDERGHTPLHWAARFGHLEIVEVLLKAGADVNAQDQKGYTPADLAALWGHEDIAEVLQKAAGSPTPTPTTPTPTPTTPTPTPTGSDLGKKLLQAARAGQLDEVRELLKAGADVNAKDTWGFTPLHIAAESGHLEIVEVLLKAGADVNAKDVQGRTPLHIAAHSGHLEIVEVLLKAGADVNAKDFRGWTPLHLAAWSGHLEIVEILLKAGADVNAQDKSGKTPADLAARAGHQDIAEVLQKAA
EC50 [nM], % CD86, human B cells with FAP-CHO, w HSA [2]: 72.3 nM
EC50 [nM], % CD86, human B cells with FAP-CHO, w/o HSA [2]: 11.4 nM
EC50 [nM], MFI CD86, human B cells with FAP-CHO, w HSA [2]: 52 nM
EC50 [nM], MFI CD86, human B cells with FAP-CHO, w/o HSA [2]: 28.9 nM
Efficacy [MFI at highest dose], MFI CD86, human B cells with WT-CHO (no FAP), w HSA [3]: 299 MFI
Efficacy [MFI at highest dose], MFI CD86, human B cells with WT-CHO (no FAP), w/o HSA [3]: 291 MFI
Efficacy at highest dose, % CD86, human B cells with WT-CHO (no FAP), w HSA [3]: 13.7%
Efficacy at highest dose, % CD86, human B cells with WT-CHO (no FAP), w/o HSA [3]: 12.5%
Efficacy [MFI at highest dose], MFI CD86, human B cells with FAP-CHO, w HSA [4]: 799 MFI
Efficacy [MFI at highest dose], MFI CD86, human B cells with FAP-CHO, w/o HSA [4]: 1640 MFI
Efficacy at highest dose, % CD86, human B cells with FAP-CHO, w HSA [4]: 27%
Efficacy at highest dose, % CD86, human B cells with FAP-CHO, w/o HSA [4]: 43.4%
